Test results: patent publication US20220403025A1

Biological target: L1 (DV1-GV4) antigen: soluble heterodimeric γδ TCR in leucine zipper format (TRDV1/TRGV4) (human)
Assay: SPR (MASS-2), IgG captured via protein G (100 nM for TS8.2), L1 as analyte, steady-state 1:1 fit

Sequence of L1 (DV1-GV4) antigen: soluble heterodimeric γδ TCR in leucine zipper format (TRDV1/TRGV4) (human) (main, as listed by the source): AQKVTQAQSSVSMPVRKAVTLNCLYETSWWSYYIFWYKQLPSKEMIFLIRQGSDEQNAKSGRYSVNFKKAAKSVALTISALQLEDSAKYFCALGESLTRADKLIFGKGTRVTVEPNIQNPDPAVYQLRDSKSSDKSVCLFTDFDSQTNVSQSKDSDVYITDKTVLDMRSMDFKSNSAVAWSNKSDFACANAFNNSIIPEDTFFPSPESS

TS8.2 (commercial anti-Vδ1 antibody; Human TCR Vδ1 purified mAb, ThermoFisher TCR1730)
Kd: 0.044 µM
